# Entries after “also recorded” stand apart in the source; their conditions may differ.
# T1: amphoterin (Homo sapiens, UniProt P09429)
# T1 sequence (P09429 1-215): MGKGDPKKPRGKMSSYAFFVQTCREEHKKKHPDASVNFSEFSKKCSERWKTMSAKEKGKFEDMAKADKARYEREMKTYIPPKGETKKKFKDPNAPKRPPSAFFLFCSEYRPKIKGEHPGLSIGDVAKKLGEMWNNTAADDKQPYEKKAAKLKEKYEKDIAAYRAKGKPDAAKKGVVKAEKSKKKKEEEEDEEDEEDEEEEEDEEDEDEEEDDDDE
# B1: TTP-4000: RAGE fusion protein: V and C1 domains of human RAGE (amino acids 1-251) linked to hinge-less CH2 and CH3 of human IgG1; SEQ ID NO: 16/18 (protein)
# chain 1: MAAGTAVGAWVLVLSLWGAVVGAQNITARIGEPLVLKCKGAPKKPPQRLEWKLNTGRTEAWKVLSPQGGGPWDSVARVLPNGSLFLPAVGIQDEGIFRCQAMNRNGKETKSNYRVRVYQIPGKPEIVDSASELTAGVPNKVGTCVSEGSYPAGTLSWHLDGKPLVPNEKGVSVKEQTRRHPETGLFTLQSELMVTPARGGDPRPTFSCSFSPGLPRHRALRTAPIQPRVWEPVPLEEVQLVVEPEGGAVAPPSVFLFPPKPKDTLMISRTPEVTCVVVDVSHEDPEVKFNWYVDGVEVHNAKTKPREEQYNSTYRVVSVLTVLHQDWLNGKEYKCKVSNKALPAPIEKTISKAKGQPREPQVYTLPPSRDELTKNQVSLTCLVKGFYPSDIAVEWESNGQPENNYKTTPPVLDSDGSFFLYSKLTVDKSRWQQGNVFSCSVMHEALHNHYTQKSLSLSPGK
# chain 2: ENITARIGEPLVLKCKGAPKKPPQRLEWKLNTGRTEAWKVLSPQGGGPWDSVARVLPNGSLFLPAVGIQDEGIFRCQAMNRNGKETKSNYRVRVYQIPGKPEIVDSASELTAGVPNKVGTCVSEGSYPAGTLSWHLDGKPLVPNEKGVSVKEQTRRHPETGLFTLQSELMVTPARGGDPRPTFSCSFSPGLPRHRALRTAPIQPRVWEPVPLEEVQLVVEPEGGAVAPPSVFLFPPKPKDTLMISRTPEVTCVVVDVSHEDPEVKFNWYVDGVEVHNAKTKPREEQYNSTYRVVSVLTVLHQDWLNGKEYKCKVSNKALPAPIEKTISKAKGQPREPQVYTLPPSRDELTKNQVSLTCLVKGFYPSDIAVEWESNGQPENNYKTTPPVLDSDGSFFLYSKLTVDKSRWQQGNVFSCSVMHEALHNHYTQKSLSLSPGK
# modifications: synthetic four domain RAGE-Fc IgG fusion protein; synthetic four domain RAGE-Fc IgG fusion protein having signal sequence removed
# Tests used:
# amphoterin = molecular target: T1, amphoterin; test: In vitro ligand binding assay (ELISA), immobilized amphoterin; details: ligand 5 micrograms per well; dilutions of initial fusion protein solution; FIG. 7
# Procedure: For example, the fusion protein may be used in a binding assay to identify potential ligands that bind to the non-immunoglobulin protein. In one example embodiment of such a binding assay, a known ligand may coated onto a solid substrate (e.g., Maxisorb plates) at a biologically relevant concentration (e.g., about 5 micrograms per well), where each well contains a total volume of about 100 microliters (μL). The plates may be incubated at 4° C. overnight to allow the ligand to bind to the substrate. Alternatively, shorter incubation periods at higher temperature (e.g., room temperature) may be used. After a period of time to allow for the ligand to bind to the substrate, the assay wells may be aspirated and a blocking buffer (e.g., 1% BSA in 50 mM imidizole buffer, pH 7.2) may be added to block nonspecific binding. […] The fusion protein bound to the immobilized ligand may be detected in a variety of ways. […] The bound complex may be detected by adding a substrate for the secondary antibody complex, e.g., the alkaline phosphatase substrate, para-nitrophenylphosphate (PNPP), and measuring conversion of PNPP to para-nitrophenol (PNP) as an increase in absorbance at 405 nm. […] In the absence of ligand (i.e., coating with only BSA) there was no increase in absorbance. The binding assay of the present invention may be used to quantify ligand binding. […]
# [1] = system: S100b/RAGE-induced production of TNF-α in THP-1 cells; test: Inhibition of S100b/RAGE-induced production of TNF-α in THP-1 cells; assay type: cell-based; details: 10 μg protein, FIG. 10
# Source text: One embodiment of a use of a RAGE fusion protein of the present invention to modulate expression of the cellular effector TNF-α is shown in FIG. 10. THP-1 myeloid cells may be cultured in RPMI-1640 media supplemented with 10% FBS and induced to secrete TNF-α via stimulation of RAGE with S100b. When such stimulation occurs in the presence of a RAGE fusion protein of the invention, induction of TNF-α by S100b binding to RAGE may be inhibited.
# Previous work has shown that the myeloid THP-1 cells may secrete TNF-α in response to RAGE ligands. In this assay, THP-1 cells were cultured in RPMI-1640 media supplemented with 10% FBS using a protocol provided by ATCC. […] The amount of TNF-α secreted by the THP-1 cells was measured 24 hours after the addition of the proteins to the cell culture using a commercially available ELISA kit for TNF-α (R&D Systems, Minneapolis, Minn.).
# [2] = system: male C57BL/6 mice, cerebral ischemia/reperfusion; test: Animal model of stroke (ischemia and reperfusion, infarct volume); assay type: in vivo; details: mouse stroke model
# Procedure: In this model, the middle carotid artery of a mouse is ligated and then reperfused to form an infarct.
# In this model, the middle carotid artery of a mouse was ligated for 1 hour followed by 23 hours of reperfusion at which point the mice were sacrificed and the area of the infarct in the brain was assessed.
# Mice were injected intraperitoneally, 1 hour after the initiation of ischemia. Mice were subjected to one hour of cerebral ischemia followed by 24 hours of reperfusion. To induce ischemia, each mouse was anesthetized and body temperature was maintained at 36-37° C. by external warming. The left common carotid artery (CCA) was exposed through a midline incision in the neck. […] After the nylon suture had been in place for 1 hour, the animal was re-anesthetized, rectal temperature was recorded and the suture was removed and the incision closed.
# Infarct volume was determined by anesthetizing the animals with an intraperitoneal injection of sodium pentobarbital (50 mg/kg) and then removing the brains. […] The infarct area in each section was determined with a computer-assisted image analysis system, consisting of a Power Macintosh computer equipped with a Quick Capture frame grabber card, Hitachi CCD camera mounted on a camera stand. […] The images were captured and the total area of infarct was determined over the sections. […] The results are expressed as the mean±standard deviation (SD). […]
# Procedure for Fc receptor: Fc receptor activation was measured by measuring TNF-α secretion from THP-1 cells that express the Fc receptor. […] Fc stimulation results in TNF-α secretion. The amount of TNF-α was measured by an Enzyme Linked Immunoabsorbent Assay (ELISA).
# Thus, in this assay, the myeloid cell line, THP-1 (ATTC #TIB-202) was maintained in RPMI-1640 media supplemented with 10% fetal bovine serum per ATCC instructions. […] The amount of TNF-alpha secreted by the THP-1 cells was measured in supernatants collected from 24 hours cultures of cells in the treated wells using a commercially available TNF ELISA kit (R&D Systems, Minneapolis, Minn. #DTA00C) per instructions.
molecule,measurement,setting,value
B1,binding to immobilized amphoterin (increase in absorbance at 405 nm),amphoterin,able to bind; also recorded: specifically interact
same,reduction of S100b induction of TNF-α,"[1]; S100b 0.1 mg/ml FAC, TNF-α ELISA at 24 hours",~70%
same,"S100b induction of TNF-α, result in words",[1]; S100b 0.1 mg/ml,at least as effective
same,"reduction in infarct volume / area of infarct compared to sRAGE, in words",[2],significantly greater reduction in infarct volume; also recorded: more efficacious than sRAGE
same,"stimulation of TNF-α release from cells, in words",Fc receptor,does not stimulate TNF-α release

# Reference: patent US20110110945A1, “Immunoglobulin Fusion Proteins and Methods of Making” (TransTech Pharma, Inc., priority 2007, published 2011)
